{"source": "paper PMC11035111", "about": "“Angiotension II directly bind P2X7 receptor to induce myocardial ferroptosis and remodeling by activating human antigen R” (Redox Biology, 2024)", "binders": {"B1": {"name": "purified P2X7R protein (extracellular domain) (domain or fragment)", "chain": "SDKLYQRKEPLISSVHTKVKGVAEVTENVTEGGVTKLVHGIFDTADYTLPLQGNSFFVMTNYLKSEGQEQKLCPEYPSRGKQCHSDQGCIKGWMDPQSKGIQTGRCIPYDQKRKTCEIFAWCPAEEGKEAPRPALLRSAENFTVLIKNNIDFPGHNYTTRNILPGMNISCTFHKTWNPQCPIFRLGDIFQEIGENFTEVAVQGGIMGIEIYWDCNLDSWSHRCQPKYSFRRLDDKYTNESLFPGYNFRYAKYYKENGMEKRTLIKAFGVRFDILVFGTGGKF"}}, "molecular_target": "T1, biotinylated angiotensin II (biotin (position not given))", "T1 construct": "angiotensin II, the peptide hormone cut from angiotensinogen; Held by its biotin on the SA chip (BLI) or on streptavidin beads (pull-down); also called Bio-Ang II; bio-Ang II; source: bought: created by Beijing Fanbo Biological Chemical Co., Ltd", "test": "BLI; Octet R8; biotinylated Ang II (1 ug/ml in 1x PBS) captured on an SA chip to a signal of 0.8 nm; P2X7R protein in SD buffer at 1, 0.5, 0.25 and 0.0625 uM", "conditions": "both partners purified", "data": [{"binder": "B1", "values": [{"measurement": "Kd", "result": 9.63, "unit": "nM"}]}]}
